In series [1] the target is FLAG-tagged ubiquitin, P0CG47.
The target in series [2] is ubiquitin-aminomethylcoumarin, P0CG47.
In series [3] the target is T1, RLRGG-AMC, C-terminal peptide motif of Ub and ISG15 coupled to aminomethylcoumarin.
T1 chain: RLRGG

Sequence of ubiquitin-aminomethylcoumarin, P0CG47 (P0CG47 whole entry, looked up): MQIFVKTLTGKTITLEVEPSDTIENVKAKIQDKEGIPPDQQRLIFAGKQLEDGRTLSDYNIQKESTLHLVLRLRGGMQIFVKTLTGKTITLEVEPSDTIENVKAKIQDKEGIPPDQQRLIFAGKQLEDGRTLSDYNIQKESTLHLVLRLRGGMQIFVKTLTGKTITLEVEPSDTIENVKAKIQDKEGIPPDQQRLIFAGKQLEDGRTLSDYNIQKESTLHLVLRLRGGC
Sequence of FLAG-tagged ubiquitin, P0CG47 (P0CG47 whole entry, looked up): as above

B1: EAV nsp2-3 polyprotein with N-terminal HA tag, PLP2 mutant I353R (protein)
chain: GYNPPGDGACGYRCLAFMNGATVVSAGCSSDLWCDDELAYRVFQLSPTFTVTIPGGRVCPNAKYAMICDKQHWRVKRAKGVGLCLDESCFRGRCNCQRMSGPPPAPVSAAVLDHILEAATFGNVRVVTPEGQPRPVPAPRVRPSANSSGDVKDPAPVPPVPKPRTKLATPNPTQAPIPAPRTRLQGASTQEPLASAGVASDSAPKWRVAKTVYSSAERFRTELVQRARSVGDVLVQALPLKTPAVQRYTMTLKMMRSRFSWHCDVWYPLAVIACLLPIWPSLALLLSFAIGLIPSVGNNVVLTALLVSSANYVASMDHQCEGAACLALLEEEHYYRAVRWRPITGALSLVLNLLGQVGYVARSTFDAAYVPCTVFDLCSFAILYLCRNRCWRCFGRCVRVGPATHVLGSTGQRVSKLALIDLCDHFSKPTIDVVGMATGWSGCYTGTAAMERQCASTVDPHSFDQKKAGATVYLTPPVNSGSALQCLNVMWKRPIGSTVLGEQTGAVVTAVKSISFSPPCCVSTTLPTRPGVTVVDHALYNRLTASGVDPALLRVGQGDFLKLNPGFRLIGGWIYGICYFVLVVVSTFTCLPIKCGIGTRDPFCRRVFSVPVTKTQEHCHAGMCASAEGISLDSLGLTQLQSYWIAAVTSGLVILLVCHRLAISALDLLTLASPLVLLVFPWASVGLLLACSLAGAAVKIQLLATLFVNLFFPQATLVTMGYWACVAALAVYSLMGLRVKVNVPMCVTPAHFLLLARSAGQSREQMLRVSAAAPTNSLLGVARDCYVTGTTRLYIPKEGGMVFE
Consider B1, for which the “density of the alpha-flag lane (remaining ubiquitin conjugates)” value in series [1] is listed as “shows a density of the alpha-flag lane that is about twice as high as that of the T312A lane”.

B2: EAV nsp2-3 polyprotein with N-terminal HA tag, PLP2 mutant T312A (protein)
chain: GYNPPGDGACGYRCLAFMNGATVVSAGCSSDLWCDDELAYRVFQLSPTFTVAIPGGRVCPNAKYAMICDKQHWRVKRAKGVGLCLDESCFRGICNCQRMSGPPPAPVSAAVLDHILEAATFGNVRVVTPEGQPRPVPAPRVRPSANSSGDVKDPAPVPPVPKPRTKLATPNPTQAPIPAPRTRLQGASTQEPLASAGVASDSAPKWRVAKTVYSSAERFRTELVQRARSVGDVLVQALPLKTPAVQRYTMTLKMMRSRFSWHCDVWYPLAVIACLLPIWPSLALLLSFAIGLIPSVGNNVVLTALLVSSANYVASMDHQCEGAACLALLEEEHYYRAVRWRPITGALSLVLNLLGQVGYVARSTFDAAYVPCTVFDLCSFAILYLCRNRCWRCFGRCVRVGPATHVLGSTGQRVSKLALIDLCDHFSKPTIDVVGMATGWSGCYTGTAAMERQCASTVDPHSFDQKKAGATVYLTPPVNSGSALQCLNVMWKRPIGSTVLGEQTGAVVTAVKSISFSPPCCVSTTLPTRPGVTVVDHALYNRLTASGVDPALLRVGQGDFLKLNPGFRLIGGWIYGICYFVLVVVSTFTCLPIKCGIGTRDPFCRRVFSVPVTKTQEHCHAGMCASAEGISLDSLGLTQLQSYWIAAVTSGLVILLVCHRLAISALDLLTLASPLVLLVFPWASVGLLLACSLAGAAVKIQLLATLFVNLFFPQATLVTMGYWACVAALAVYSLMGLRVKVNVPMCVTPAHFLLLARSAGQSREQMLRVSAAAPTNSLLGVARDCYVTGTTRLYIPKEGGMVFE
B2: the “density of the alpha-flag lane (remaining ubiquitin conjugates)” value in series [1] was “a mutant such as T312A already shows a level of DUB-activity that leads to a significantly denser alpha-flag lane, which represents the amount of remaining ubiquitin conjugates, than that of the wild-type virus”.

B3: EAV PLP2 domain (residues 261-392 of EAV pp1a) carrying a C-terminal HIS6 purification tag, wild-type (protein)
chain: GYNPPGDGACGYRCLAFMNGATVVSAGCSSDLWCDDELAYRVFQLSPTFTVTIPGGRVCPNAKYAMICDKQHWRVKRAKGVGLCLDESCFRGICNCQRMSGPPPAPVSAAVLDHILEAATFGNVRVVTPEGQ
As a reminder, the kcat/KM is the second-order rate constant that governs catalysis at low substrate concentration. For the protein B3, the values for the kcat/KM in series [2] and in series [3] were 21000 ± 2000 M⁻¹ s⁻¹ and 48 ± 8 M⁻¹ s⁻¹, respectively.

B4: EAV PLP2 domain I353R mutant enzyme (protein)
chain: GYNPPGDGACGYRCLAFMNGATVVSAGCSSDLWCDDELAYRVFQLSPTFTVTIPGGRVCPNAKYAMICDKQHWRVKRAKGVGLCLDESCFRGRCNCQRMSGPPPAPVSAAVLDHILEAATFGNVRVVTPEGQ
On to B4, for which, in series [2], the kcat/KM is 1100 ± 100 M⁻¹ s⁻¹ and the “kcat/KM relative to wild type” value is given as “the kcat/KM value for Ub-AMC of the mutant I353R is 20 times lower than that of the wild-type virus”. In addition, the kcat/KM in series [3] was found to be 71 ± 8 M⁻¹ s⁻¹.

(Values after US20150313988.)
